Numbering of substitutions follows the chain as printed.
B1: SEQ6 aptamer (ssRNA)
RNA: GGGAAGCCUGUGGAGCUGCAGGAUGAAAAAAACCCAAAAUUAAAUAAAAAAUAGACGGUGCAUUGUCACCAACAACUGG
modifications: 2'-F all pyrimidines
B2: SEQ7 aptamer (ssRNA)
RNA: B1 RNA with A43G
modifications: 2'-F all pyrimidines
B3: SEQ9 aptamer (ssRNA)
RNA: GGGAAGCCUGUGGAGCUGCUCCACAAGGAUGAAAAAAACCCAAAUAAUAUAUUUAAUCAGCAUUGUCACCAACAACUGG
modifications: 2'-F all pyrimidines
B4: SEQ5 aptamer (ssRNA)
RNA: GGGAAGCCUGUGGAGCUGCUUAAACAAGCAAGUGAAAAAAACCACAGCAAAUGUAAAAAGCAUUGUCACCAACAACUGG
modifications: 2'-F all pyrimidines
B5: SEQ4 aptamer (ssRNA)
RNA: GGGAAGCCUGUGGAGCUGCAGGAUGAAAAAAACCCAAAUAUGACAAAUAAAACGGCAACGCAUUGUCACCAACAACUGG
modifications: 2'-F all pyrimidines
B6: SEQ8 aptamer (ssRNA)
RNA: GGGAAGCCUGUGGAGCUGCGGAUAAAAAUAGAGUUUGAUAAACACCUGUAUUAAAACCGCAUUGUCACCAACAACUGG
modifications: 2'-F all pyrimidines
B7: SEQ12 aptamer (ssRNA)
RNA: GGGAAGCCUGUGGAGCUGCGAAACAGUGAAACAAACCACAGACUGAGAAAGCAGUAACAGCAUUGUCACCAACAACUGG
modifications: 2'-F all pyrimidines
B8: SEQ3 aptamer (ssRNA)
RNA: GGGAAGCCUGUGGAGCUGCAGGAUGAAAAAAACCCAAAAUAAGUAGAAAUGACAGAAUGGCAUUGUCACCAACAACUGG
modifications: 2'-F all pyrimidines
B9: SEQ1 aptamer (ssRNA)
RNA: GGGAAGCCUGUGGAGCUGCAGGAUGAAAAAAACCCAAAAACAAAGACAAUGAUUGAGUAGCAUUGUCACCAACAACUGG
modifications: 2'-F all pyrimidines
B10: SEQ66 aptamer (ssRNA)
RNA: GGGAGAACUUCGACCAGAAGUUUGAAAAAAACCCAAAGCAAGCACAACAUUAUGUGCGCAUACAUGGAUCCUCA
modifications: 2'-F all pyrimidines
B11: SEQ65 aptamer (ssRNA)
RNA: B10 RNA with U22G, G38U, A40G, C48A
modifications: 2'-F all pyrimidines
B12: SEQ47 aptamer (ssRNA)
RNA: GGGAGAACUUCGACCAGAAGAAGUUUGAAAAGAACCCAAAAUGAGCAAAAUAUGUGCGCAUACAUGGAUCCUCA
modifications: 2'-F all pyrimidines
B13: SEQ45 aptamer (ssRNA)
RNA: GGGAGAACUUCGACCAGAAGAGAAUGAAACUCCCAAAUCAAGGACAAUGAUAUGUGCGCAUACAUGGAUCCUCA
modifications: 2'-F all pyrimidines
B14: SEQ59 aptamer (ssRNA)
RNA: GGGAGAACUUCGACCAGAAGUCGAAACGUUUGAAAAAAACCCAAGGAGGAUAUGUGCGCAUACAUGGAUCCUCA
modifications: 2'-F all pyrimidines
B15: SEQ63 aptamer (ssRNA)
RNA: GGGAGAACUUCGACCAGAAGAUUUGAAAGAAACCCAAACUAAGCACAAAAUAUGUGCGCAUACAUGGAUCCUCA
modifications: 2'-F all pyrimidines
B16: SEQ61 aptamer (ssRNA)
RNA: GGGAGAACUUCGACCAGAAGGUCGUAACGAAUAAAACUCCUGCACAAAAAUAUGUGCGCAUACAUGGAUCCUCA
modifications: 2'-F all pyrimidines
B17: SEQ84 aptamer (ssRNA)
RNA: GGGAGAACUUCGACCAGAAGUGAAAGAAACUCCCGAUGAAAGAUGUAACAAACCAUAUGUGCGCAUACAUGGAUCCUC
modifications: 2'-F all pyrimidines

These binders were tested against T1, beta-NGF (nerve growth factor) (Homo sapiens, UniProt P01138 P01138:122-241) (assay: SPR; blocks NGF-TrkA and NGF-P75; PC-12 neurite inhibition + (Table 2)). Conditions: tags: R&D Systems; chain copies: 2.
Protocol: (§1) As directed in BIAcore Company's protocol, Protein A (21181, PIERCE) was immobilized on a CM5 sensor chip. About 1100 RU of human Trk A-Fc fused with the Fc portion of IgG (175-TK, R&D systems) was immobilized thereon. As the analyte, a mixture of NGF (0.1 μM) and each aptamer (0.33 μM) was injected after being allowed to stand for 30 minutes. […] When NGF binds stronger to a receptor than an aptamer, the aptamer may be removed and NGF may bind to the receptor. […] Using the binding amount of NGF and NGF receptor without an aptamer as 100, the binding amount of NGF and NGF receptor added with an aptamer was determined as a correction value. Here, the binding amount is the RU value at the peak top of the sensorgram of BIAcore (RU value immediately after completion of NGF injection). […] A similar experiment was performed for another receptor P75 (p75-Fc; R&D systems).

T1 sequence (P01138 122-241, one chain of several): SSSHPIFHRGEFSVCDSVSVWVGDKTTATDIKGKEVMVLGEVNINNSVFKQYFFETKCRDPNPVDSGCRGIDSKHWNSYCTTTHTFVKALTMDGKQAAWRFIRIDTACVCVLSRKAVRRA

Row | Binder | activity
1 | B1 | ≥ 60 % inhibition
2 | B2 | ≥ 60 % inhibition
3 | B3 | ≥ 60 % inhibition
4 | B4 | ≥ 60 % inhibition
5 | B5 | ≥ 60 % inhibition
6 | B6 | ≥ 60 % inhibition
7 | B7 | ≥ 60 % inhibition
8 | B8 | ≥ 60 % inhibition
9 | B9 | ≥ 60 % inhibition

Each binder was assayed against T1, beta-NGF (nerve growth factor) (assay: cell_activity; neurite outgrowth, Neuroscreen-1 cells). Conditions: tags: R&D Systems; chain copies: 2.
Protocol: The neurite outgrowth inhibitory activity of aptamer was evaluated by using Neuroscreen-1 cell, which is a subclone of PC-12 cells. 2500 Cells per well were cultured for one day in an RPMI-1640 medium containing 2.5% horse serum and 1.25% fetal bovine serum in a 96 well flat-bottom plate coated with collagen type IV. A mixed solution of NGF (final concentration 15 ng/ml or 1.1 nM) prereacted in a serum-free RPMI-1640 medium at room temperature or 37° C. for 30 min to 1 hr and an aptamer (final concentration 500-3 nM) was added. Two or three days later, the cytoplasm and nuclei were stained using Cellomics Neurite Outgrowth Kits (manufactured by Thermo Scientific), and neurite length per cell was measured by Cellomics ArrayScan VTI (manufactured by Thermo Scientific). With the neurite length per cell obtained by culturing the cell for 2 days with the addition of NGF alone as inhibitory activity 0%, and that of the cell obtained by NGF free culture as inhibitory activity 100%, the inhibitory activity of the aptamer was calculated from the neurite length per cell obtained by culturing with the addition of NGF and the aptamer in mixture. […] When the inhibitory activity was 0% or below, ‘0%’ is indicated. When it was not less than 100%, ‘100%’ is indicated. The 50% inhibitory concentration was determined from the concentrations at two, above and below points sandwiching the 50% inhibitory activity.

Row | Binder | IC50
10 | B10 | < 0.01 µM
11 | B11 | 0.0222 µM
12 | B12 | 0.0146 µM
13 | B13 | 0.0202 µM
14 | B14 | 0.0715 µM
15 | B15 | < 0.01 µM
16 | B16 | 0.0207 µM
17 | B17 | 0.0146 µM

The binders below were run against T1, beta-NGF (nerve growth factor) (assay: SPR; blocks NGF-TrkA and NGF-P75). Conditions: tags: R&D Systems; chain copies: 2.
Protocol: as §1

Row | Binder | activity
18 | B10 | ≥ 60 % inhibition
19 | B11 | ≥ 60 % inhibition
20 | B12 | ≥ 60 % inhibition
21 | B13 | ≥ 60 % inhibition
22 | B14 | ≥ 60 % inhibition
23 | B15 | ≥ 60 % inhibition
24 | B16 | ≥ 60 % inhibition
25 | B17 | ≥ 60 % inhibition

Source: patent publication US20110251266, “APTAMER FOR NGF AND USE THEREOF” (Shionogi & Co., Ltd., published 2011)
